These results are taken from patent US10160812B2, “Bispecific HER2 antibodies” (MedImmune, LLC, priority 2014, dated 2018).

Several values for one entry are separate records, joined by “and”; a condition that tells them apart may be missing. Identical values can stand only once.

The test system of one assay is MDA-MB-468. Kind of assay: In vitro cytotoxic activity (Cell Titer Glo). It counts as cell-based, human. Conditions: MDA-MB-468, 3 to 4 days.
The target of assay [1] is T1, chimeric human/mouse Her2 variants (Homo sapiens, UniProt P04626, A221T/G222S/P230R/R217G/S214I/V219I).
T1 construct: His tag; made in house; host or cells: HEK293F (transient, pEBNA vector; captured from culture supernatant)
Kind of assay: ProteOn SPR binding of 39S to captured chimeric Her2 variants. As to conditions: variant KO_192-208. An excerpt: (§1) The domain II of human HER2 was identified as the epitope of 39S by swapping domains between human and mouse Her2 molecules. Mouse Her2 was chosen as the chimeric partner because it is not recognized by 39S, but shares 85% sequence identity with human HER2. Chimeric variants targeting each domain of HER2 were constructed (see method below) as listed in Table 4, including four knock-out (KO, loss-of-function) variants replacing domain I, II, III, or IV of human HER2 with the mouse counterpart, and one knock-in (KI, gain-of-function) variant grafting the domain II of human HER2 into mouse Her2 molecule. The chimeric variant nomenclature denotes types of variants (KO/KI) and the number of domains swapped. The binding profiles of 39S to these variants were characterized using a SPR based instrument ProteOn™ by capturing variants on sensor surfaces using anti-human and mouse Her2 polyclonal antibodies (see method below). The expression of the variants was monitored by anti-His polyclonal antibody using ProteOn™. […] Therefore, the domain II (amino acid 146-310) of human HER2 was identified as the epitope-containing domain of 39S by both loss-of-function and gain-of-function variants.
(§2) We further refined the epitope of 39S and identified the region of amino acid 192-208 in domain II as the critical epitope region. […] Seven knock-out variants were generated by replacing each of the following human HER2 regions with the mouse counterparts, including amino acids 146-208, 159-162, 171-187, 192-208, 250-261, 276-285, and 295-296. In addition, one knock-in variant was constructed by grafting the region of amino acid 192-208 of human HER2 to the mouse molecule. The variant nomenclature denotes types of variants (KO/KI) and the swapped regions with amino acid numbering. All variants had detectable expression levels by anti-His polyclonal antibody (Table 4). […] The binding of 39S was not impacted when substituting any other regions of human HER2 with mouse amino acids (KO_159-162, KO_171-187, KO_250-261, KO_276-285, and KO_295-296). […] Taken together, the region of amino acid 192-208 in domain II of human HER2 was identified as the functional epitope of 39S.
(§3) The variant nomenclature denotes types of variants (KO/KI) and the swapped regions with amino acid numbering. Amino acid positions were denoted basing on the numbering scheme of mature human HER2 sequences without its signal peptide. The expression levels of all variants were monitored by an anti-His polyclonal antibody. The binding profiles of 39S to these variants were characterized using a SPR based instrument ProteOn™ by capturing variants on sensor surfaces using anti-human and mouse Her2 polyclonal antibodies.
(§4) Construction and expression of chimeric human/mouse Her2 variants were constructed as follows. Briefly, DNAs encoding chimeric human/mouse Her2 variants with a His tag were assembled and amplified by overlapping PCR using human and mouse Her2 plasmids as templates (MedImmune). The assembled DNAs were cloned into the mammalian expression vector pEBNA (MedImmune). HEK293F cells were then transiently transfected with the various constructs using 293fectin and standard protocols according to the manufacturer's instructions (Invitrogen).
(§5) The binding characteristics of 39S to chimeric human/mouse variants were studied using a ProteOn™ XPR36 instrument (BioRad). Standard amine coupling was used to immobilize an anti-human or mouse Her2 polyclonal antibody (R&D System) in 10 mM sodium acetate (pH 5.0) to the surface of a GLC biosensor chip at ˜5000 resonance units (RU) for each channel. The chimeric proteins in cell culture supernatant were injected and captured by anti-human or mouse polyclonal antibodies onto the GLC surface with a ˜200RU response. Anti-HER2 mAb 39S was diluted in phosphate-buffered saline (PBS) (pH 7.4) with 0.005% Tween-20 from 10 nM to 0.625 nM (1:2 dilution), and injected at 100 μL/min for 180 sec with a 600-second dissociation time. […]

Assay [2] deals with T2, chimeric human/mouse Her2 variants (Homo sapiens, UniProt P04626, H318N/L317P).
T2 construct: His tag; made in house; host or cells: HEK293F (transient, pEBNA vector; captured from culture supernatant)
Described as above. Conditions: variant KO_295-296.
Text: as §1, §2, §3, §4, §5

The target in assay [3] is T3, chimeric human/mouse Her2 variants (Homo sapiens, UniProt P04626, A221T/F173L/G201D/G222S/H174R/H193P/I172V/I184M/L181P/L183D/M198T/P230R/R203H/R217G/S196A/S202N/S209P/S214I/T182V/V219I).
T3 construct: His tag; made in house; host or cells: HEK293F (transient, pEBNA vector; captured from culture supernatant)
Described as above. As to conditions: variant KO_146-208.
Text: as §1, §2, §3, §4, §5

Assay [4] has as its target T4, chimeric human/mouse Her2 variants (Mus musculus, UniProt P70424, A197S/D184L/D202G/E308D/G218R/H204R/I215S/I220V/I273V/L174F/L284P/M185I/N203S/N319H/P182L/P194H/P210S/P318L/R175H/R231P/S223G/T199M/T222A/T299A/V173I/V183T).
T4 construct: His tag; made in house; host or cells: HEK293F (transient, pEBNA vector; captured from culture supernatant)
Described as above. As to conditions: variant KI_II, human amino acids 146-310 grafted into mouse Her2; read-out: The binding affinity of 39S (KD).
Text: as §1, §2, §3, §4, §5

The target of assay [5] is T5, chimeric human/mouse Her2 variants (Mus musculus, UniProt P70424, G218R/I215S/I220V/R231P/S223G/T222A).
T5 construct: His tag; made in house; host or cells: HEK293F (transient, pEBNA vector; captured from culture supernatant)
The description is as above. Conditions: variant KI_192-208, human amino acids 192-208 grafted into mouse Her2; read-out: The binding affinity of 39S (KD).
Text: as §1, §2, §3, §4, §5

In assay [6] the target is T6, chimeric human/mouse Her2 variants (Homo sapiens, UniProt P04626, A221T/A298T/D307E/F173L/G201D/G222S/H174R/H193P/H318N/I172V/I184M/L181P/L183D/L317P/M198T/P230R/P283L/R203H/R217G/S196A/S202N/S209P/S214I/T182V/V219I/V272I).
T6 construct: His tag; made in house; host or cells: HEK293F (transient, pEBNA vector; captured from culture supernatant)
The description is as above. Conditions: variant KO_II, swapped amino acids 146-310.
Text: as §1, §2, §3, §4, §5

The target in assay [7] is T7, chimeric human/mouse Her2 variants (Homo sapiens, UniProt P04626, A298T/D307E).
T7 construct: His tag; made in house; host or cells: HEK293F (transient, pEBNA vector; captured from culture supernatant)
The description is as above. Conditions: variant KO_276-285.
Text: as §1, §2, §3, §4, §5

Assay [8] addresses T8, chimeric human/mouse Her2 variants (Homo sapiens, UniProt P04626, G201D/H193P/M198T/R203H/S196A/S202N/S209P).
T8 construct: His tag; made in house; host or cells: HEK293F (transient, pEBNA vector; captured from culture supernatant)
The description is as above. As to conditions: variant KO_171-187.
Text: as §1, §2, §3, §4, §5

Take T-DM1 [reference compound]: in the assay on MDA-MB-468, the “In vitro potency (EC50 in pM)” value is on record as “Inactive”.

B1: 39S: lead optimized monoclonal antibody derived from the 1.39.1 antibody; VH SEQ ID NO:15, VL SEQ ID NO:16 (antibody, V domains shown)
VH: EVQLVESGGGLVKPGGSLRLSCAASGFTFSSYSMSWVRQAPGKGLEWVSSISSSSSYIYYADSVKGRFTISRDNAKNSLYLQMNSLRAEDTAVYYCARGGDAYNYYYFDYWGQGTLVTVSS
VL: DIVMTQTPLSLSVTPGQPASISCKSSQSVFFRSNNKNILAWYLQKPGQPPQLLIYWASSRESGVPDRFSGSGSGTDFTLKISRVEAEDVGVYYCQQYFGSPFTFGPGTKVDIK
B1: the “The binding affinity of 39S (KD)” value was “did not bind and No” in assay [1]; “not impacted” in [2]; “did not bind and No” in assay [3]; “did not bind and No” in [6]; “not impacted” in assay [7]; “not impacted” in [8]. Further, the Kd in assay [4] was 0.168 nM and 0.163 nM; in assay [5], 0.072 nM.
